# Laboratory results published in publication PMC12269619 (2025).
# B1: m42.127 Fab / Biotinylated junctional peptide Pep21 (PfCSP peptide 21) [modified: biotin (position not stated); biotin (position not stated)] [Plasmodium falciparum (clone 3D7)] (parent complex)
# chain 1: QVQLVQSGAEVKKPGASVKVSCKASGYTFTSYAIHWVRQAPGQRLEWMGWIKAGNGNTRYSQKFQDRVTITRDTSASTAYMELSSLRSEDTAVYYCALLTVITPDDTFDIWGQGTMVTVSSASTKGPSVFPLAPSSKSTSGGTAALGCLVKDYFPEPVTVSWNSGALTSGVHTFPAVLQSSGLYSLSSVVTVPSSSLGTQTYICNVNHKPSNTKVDKKVEPKSCDKGLEVLFQ
# chain 2: not shown
# chain 3: NPDPNANPNVDPNAN
# Variants of: B1
# Assay: BLI; read off a plot
row,Variant,Kd
1,"chain 1 T103R, chain 1 P104R",~15 nM
2,"chain 1 T103R, chain 1 P104Q",~18 nM
3,chain 1 P104M,~22 nM
4,chain 1 P104Q,~20 nM
5,chain 1 Y32K,~18 nM
6,chain 1 T100M,~24 nM
7,chain 1 T103K,~15 nM
